{"source": "patent CN107417788A", "about": "(INST PASTEUR SHANGHAI CAS, dated 2017)", "molecular_target": "T1, 生物素化Zaire GP蛋白 (pIRES-Zaire GP-BirA-FLAG SP-) (Ebola virus (EBOV) subtype Zaire, UniProt Q05320 33-676)", "T1 construct": "range 33-676; also called Zaire-GP-Biotin; Zaire-GP-BirA细胞裂解液", "T1 sequence": "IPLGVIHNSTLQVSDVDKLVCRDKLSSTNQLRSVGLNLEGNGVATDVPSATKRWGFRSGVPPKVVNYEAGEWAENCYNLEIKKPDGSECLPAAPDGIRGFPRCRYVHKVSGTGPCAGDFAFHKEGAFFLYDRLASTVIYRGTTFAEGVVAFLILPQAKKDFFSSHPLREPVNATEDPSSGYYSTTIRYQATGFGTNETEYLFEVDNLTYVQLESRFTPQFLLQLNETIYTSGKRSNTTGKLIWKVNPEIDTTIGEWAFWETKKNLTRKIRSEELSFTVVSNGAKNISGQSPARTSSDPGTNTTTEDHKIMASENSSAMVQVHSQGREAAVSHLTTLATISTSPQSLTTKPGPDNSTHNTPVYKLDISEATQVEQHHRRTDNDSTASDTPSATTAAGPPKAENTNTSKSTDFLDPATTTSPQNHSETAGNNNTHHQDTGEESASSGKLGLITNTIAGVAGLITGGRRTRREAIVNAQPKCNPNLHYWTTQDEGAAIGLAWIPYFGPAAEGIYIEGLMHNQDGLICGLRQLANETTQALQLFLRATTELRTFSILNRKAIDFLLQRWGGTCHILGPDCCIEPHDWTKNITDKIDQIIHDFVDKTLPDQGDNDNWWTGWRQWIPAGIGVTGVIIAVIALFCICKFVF", "test": "indirect ELISA, […] (1:300) […]", "data": [{"binder": "S37-3 (antibody, V domains shown, also called 单克隆抗体S37-3; S37-3上清) VH: EVQLQQSGPELVKPGASVKISCKASGYSFTGYFMNWVKQSHGKSLEWIGRINPYNGDTFYNQKFKGKATLTVDKSSSTAHMELLSLTSEDSAVYYCGRGLRAFLDYWGQGTTLTVSS VL: DIVLTQSPATLSVTPGDRVSLSCRASQSISNYLHWYQQKSHESPRLLIKYASQSISGIPSRFSGSGSGTDFTLSINSVETEDFGMYFCQQSNSWPHTFGGGTKLEIK", "values": [{"measurement": "binding result", "result": "binds"}]}]}
